The values below come from US20090318338.

The test system of this data set is RSK2.
RSK2, sequence (chain, as listed by the source): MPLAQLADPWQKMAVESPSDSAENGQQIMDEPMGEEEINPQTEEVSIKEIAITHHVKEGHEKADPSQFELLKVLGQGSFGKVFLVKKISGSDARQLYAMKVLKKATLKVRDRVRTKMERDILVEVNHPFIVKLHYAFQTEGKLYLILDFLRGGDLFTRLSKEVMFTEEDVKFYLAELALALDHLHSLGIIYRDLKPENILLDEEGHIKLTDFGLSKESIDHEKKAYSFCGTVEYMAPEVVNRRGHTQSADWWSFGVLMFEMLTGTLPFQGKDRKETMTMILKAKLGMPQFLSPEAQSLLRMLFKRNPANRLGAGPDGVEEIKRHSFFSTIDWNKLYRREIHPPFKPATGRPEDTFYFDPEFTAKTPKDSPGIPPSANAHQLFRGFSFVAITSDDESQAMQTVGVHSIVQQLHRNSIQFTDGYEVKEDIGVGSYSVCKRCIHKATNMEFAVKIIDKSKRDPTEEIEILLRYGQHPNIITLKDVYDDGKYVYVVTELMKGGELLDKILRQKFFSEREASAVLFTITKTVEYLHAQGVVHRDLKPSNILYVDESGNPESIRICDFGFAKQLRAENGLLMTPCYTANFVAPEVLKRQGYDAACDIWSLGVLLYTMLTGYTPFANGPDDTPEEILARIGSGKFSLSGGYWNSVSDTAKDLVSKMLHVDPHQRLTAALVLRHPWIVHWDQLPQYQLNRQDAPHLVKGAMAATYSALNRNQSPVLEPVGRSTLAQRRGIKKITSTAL

For the substance WWP1, the RSK2 ubiquitination entry is reported as “WWP1 can promote low levels of RSK2 ubiquitination”.
